Laboratory results reported in US20130302313A1.

Molecular target: coxsackievirus-adenovirus receptor (CAR) (UniProt P78310)
Experiment: cell-based or functional assay

UniProt P78310, sequence (P78310 20-365 limits assumed): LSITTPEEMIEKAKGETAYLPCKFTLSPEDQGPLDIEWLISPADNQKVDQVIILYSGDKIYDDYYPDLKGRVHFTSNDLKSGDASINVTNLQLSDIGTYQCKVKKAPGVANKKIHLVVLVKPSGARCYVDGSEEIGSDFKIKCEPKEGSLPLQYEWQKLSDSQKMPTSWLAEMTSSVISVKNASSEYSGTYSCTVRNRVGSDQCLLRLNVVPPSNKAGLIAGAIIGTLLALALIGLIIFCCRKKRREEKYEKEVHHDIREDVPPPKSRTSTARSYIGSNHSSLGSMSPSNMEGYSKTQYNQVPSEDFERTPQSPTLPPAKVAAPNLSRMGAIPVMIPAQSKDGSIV

Question: How did the GFP expression (transduction) of A549 cells by Ad5(GFP) at 500 evg/cell in the presence of soluble Ad5 fiber, relative to absence of soluble fiber (set to 100%) turn out when “free soluble Ad5 fiber molecules (from UniProt P11818 1-581) (ligand)” was run?
Answer: 20%

Question: And the Transduction efficacy of A549 cells by Ad5PTD(GFP) at 500 evg/cell in the presence of soluble Ad5 fiber, relative to absence of soluble fiber (set to 100%)?
Answer: 80%
